Source: the Human Domainome abundance scans (Beltran et al. 2025)
± gives the uncertainty stated by the source.

B1: Triacylglycerol hydrolase DDHD2, residues 389 to 447; numbered along this chain, O94830 (parent)
chain: TLEEDLKKLQLSEFFDIFEKEKVDKEALALCTDRDLQEIGIPLGPRKKILNYFSTRKNS

Variants of: B1
Assay: abundance fitness (aPCA) (normalised: wild type 0, dead -1); higher = more abundant; growth selection in yeast, the domain comes from the species named
Conditions: Homo sapiens

Compared with TLEEDLKKLQLSEFFDIFEKEKVDKEALALCTDRDLQEIGIPLGPRKKILNYFSGRKNS [T55G], TLEEDLKKLQLSEFFDIFEKEKVDKEALALCTDRDLQEIGIPLGPRKKILNYFSFRKNS [T55F] is lower in abundance fitness: 0.007 ± 0.054 for the first, -0.482 ± 0.16 for the second.

TLEEDLKKLQLSEFFDIFEKEKVDKEALALCTDRDLQEIGIPLGPRKKILNYFSTRKTS [N58T] and TLEEDLKKLQLSEFFDIFEKEKVDKEALALCTDRDLQEIGIPLGPRKKILNYFSTRKQS [N58Q] are within error of each other in abundance fitness: -0.049 ± 0.11 for the first, -0.236 ± 0.12 for the second.

Compared with TLEEDLKKLQLSEFFDIFEKEKVDKEALALCTDRDLQEIGMPLGPRKKILNYFSTRKNS [I41M], TLEEDLKKLQLSEFFDIFEKEKVDKEALALCTDRDLQEIGCPLGPRKKILNYFSTRKNS [I41C] is lower in abundance fitness: 0.134 ± 0.08 for the first, -0.425 ± 0.12 for the second.

Compared with TLEEDLKKLQLSEFFDIFEKEKVDKEALPLCTDRDLQEIGIPLGPRKKILNYFSTRKNS [A29P], TLEEDLKKLQLSEFFDIFEKEKVDKEALGLCTDRDLQEIGIPLGPRKKILNYFSTRKNS [A29G] is lower in abundance fitness: 0.03 ± 0.091 for the first, -0.191 ± 0.074 for the second.

TLEEDLKKLQLSTFFDIFEKEKVDKEALALCTDRDLQEIGIPLGPRKKILNYFSTRKNS [E13T] and TLEEDLKKLQLSPFFDIFEKEKVDKEALALCTDRDLQEIGIPLGPRKKILNYFSTRKNS [E13P] are within error of each other in abundance fitness: -0.538 ± 0.15 for the first, -0.432 ± 0.16 for the second.

Compared with TLEEDLKKLQLSEFFTIFEKEKVDKEALALCTDRDLQEIGIPLGPRKKILNYFSTRKNS [D16T], TLEEDLKKLQLSEFFLIFEKEKVDKEALALCTDRDLQEIGIPLGPRKKILNYFSTRKNS [D16L] is lower in abundance fitness: -0.019 ± 0.066 for the first, -0.33 ± 0.06 for the second.

Going from TLEEDLKKLQLSEFFDIFEKEKVDKEALALCTDRDLQEIGIPLGPRKKIDNYFSTRKNS [L50D] to TLEEDLKKLQLSEFFDIFEKEKVDKEALALCTDRDLQEIGIPLGPRKKIWNYFSTRKNS [L50W], the abundance fitness falls from 0.14 ± 0.11 to -0.585 ± 0.1.

Compared with TLEEDLKKLQLSEFFDIFEKEKVDKEALALCTDRDLQEIGIPLGPWKKILNYFSTRKNS [R46W], TLEEDLKKLQLSEFFDIFEKEKVDKEALALCHDRDLQEIGIPLGPRKKILNYFSTRKNS [T32H] is higher in abundance fitness: -1.27 ± 0.17 for the first, -0.359 ± 0.14 for the second.

First: TLEEDLKKLQLSEFFDIFEKEKTDKEALALCTDRDLQEIGIPLGPRKKILNYFSTRKNS [V23T]
Second: TLEEDLKKLQLSEFFDIFEKEKMDKEALALCTDRDLQEIGIPLGPRKKILNYFSTRKNS [V23M]
The abundance fitness of the first is lower: -0.231 ± 0.1 for the first, 0.773 ± 0.079 for the second.

Compared with TLEEDLKKLQLSEFFDIFEKEKVDKEALALCTDRDPQEIGIPLGPRKKILNYFSTRKNS [L36P], TLEEDLKKLQLSEFFDIFEKEKVDKEALALCTDRDKQEIGIPLGPRKKILNYFSTRKNS [L36K] is higher in abundance fitness: -0.473 ± 0.12 for the first, -0.06 ± 0.086 for the second.

TLEEDLKKLQLSEFFDIFEKEKVDKEALALCTDRDFQEIGIPLGPRKKILNYFSTRKNS [L36F] and TLEEDLKKLQLSEFFDIFEKEKVDKEALALCTDRDYQEIGIPLGPRKKILNYFSTRKNS [L36Y] are within error of each other in abundance fitness: -0.797 ± 0.15 for the first, -0.765 ± 0.14 for the second.

Compared with TLEEDLKKLQLSEFFDIFEKEKVDKEALALCTDRDLQEIGIPLWPRKKILNYFSTRKNS [G44W], TLEEDLKKLQLSEFFDIFEKEKVDKEALALCTDRDLQEIGIPLEPRKKILNYFSTRKNS [G44E] is higher in abundance fitness: -0.275 ± 0.07 for the first, 0.574 ± 0.079 for the second.

TLEEDLKKLQLSEFFDIFEKEKVDKEALAPCTDRDLQEIGIPLGPRKKILNYFSTRKNS [L30P] and TLEEDLKKLQLSEFFDIFEKEKVDKEALALCTDRDLQEIGIPLGPRKKILNYFSTNKNS [R56N] are within error of each other in abundance fitness: -0.177 ± 0.092 for the first, -0.236 ± 0.15 for the second.

Going from RLEEDLKKLQLSEFFDIFEKEKVDKEALALCTDRDLQEIGIPLGPRKKILNYFSTRKNS [T1R] to TLEEDLKKLQLSEFFDIFEKEKVDKEALALCTDRMLQEIGIPLGPRKKILNYFSTRKNS [D35M], the abundance fitness rises from -0.331 ± 0.16 to 0.215 ± 0.083.

TLEEDLKKLQLSEFFDIFEKEKVDKEALALCTDRVLQEIGIPLGPRKKILNYFSTRKNS [D35V] and TLEEDLKKLQLSEFFDIFEKEKVDKEALALCTDRPLQEIGIPLGPRKKILNYFSTRKNS [D35P] are within error of each other in abundance fitness: -0.818 ± 0.087 for the first, -0.937 ± 0.14 for the second.

Going from TLEEDLKKLQLSEFFDIFEKEKVDKEALALCTDRTLQEIGIPLGPRKKILNYFSTRKNS [D35T] to TLERDLKKLQLSEFFDIFEKEKVDKEALALCTDRDLQEIGIPLGPRKKILNYFSTRKNS [E4R], the abundance fitness falls from -0.264 ± 0.087 to -0.493 ± 0.056.

Compared with TLEVDLKKLQLSEFFDIFEKEKVDKEALALCTDRDLQEIGIPLGPRKKILNYFSTRKNS [E4V], TLEDDLKKLQLSEFFDIFEKEKVDKEALALCTDRDLQEIGIPLGPRKKILNYFSTRKNS [E4D] is higher in abundance fitness: -0.629 ± 0.072 for the first, -0.205 ± 0.1 for the second.

Going from TLEQDLKKLQLSEFFDIFEKEKVDKEALALCTDRDLQEIGIPLGPRKKILNYFSTRKNS [E4Q] to TLEEDLKKLQLSEFFDIFEKEKVDKEALALCTDRDLQEIGIPLGPRKCILNYFSTRKNS [K48C], the abundance fitness falls from -0.103 ± 0.072 to -0.408 ± 0.1.

Going from TLEEDLKKLQLSEFFDIFEKEKVDLEALALCTDRDLQEIGIPLGPRKKILNYFSTRKNS [K25L] to TLEEDLKKLQLSEFFDIFEKEKVDKEALALCTDRDLSEIGIPLGPRKKILNYFSTRKNS [Q37S], the abundance fitness falls from 0.03 ± 0.072 to -0.178 ± 0.07.

TLEEDLKKLQLSEFFDIFEKEEVDKEALALCTDRDLQEIGIPLGPRKKILNYFSTRKNS [K22E] and TLEEDLKKLQLSEFFDIFEKEYVDKEALALCTDRDLQEIGIPLGPRKKILNYFSTRKNS [K22Y] are within error of each other in abundance fitness: 0.141 ± 0.093 for the first, 0.089 ± 0.1 for the second.

TLEEDLKKLQLSEFFDIFEKECVDKEALALCTDRDLQEIGIPLGPRKKILNYFSTRKNS [K22C] and TLEEDLKKLQLSEFFDIFLKEKVDKEALALCTDRDLQEIGIPLGPRKKILNYFSTRKNS [E19L] are within error of each other in abundance fitness: -0.083 ± 0.09 for the first, 0.054 ± 0.062 for the second.

TLEEDLKKLQLSEFFDIFYKEKVDKEALALCTDRDLQEIGIPLGPRKKILNYFSTRKNS [E19Y] and TLEEDLKKLQLSEFFDIFCKEKVDKEALALCTDRDLQEIGIPLGPRKKILNYFSTRKNS [E19C] are within error of each other in abundance fitness: -0.255 ± 0.12 for the first, -0.161 ± 0.089 for the second.

TLEEDLKKLQLSEFFDIFEKAKVDKEALALCTDRDLQEIGIPLGPRKKILNYFSTRKNS [E21A] gave an abundance fitness of 0.599 ± 0.07.
